Data taken from patent US20150086555A1.

Tests used:
Settings in all cases: remark: other sources report otherwise
[1] = molecular target: recombinant soluble homotrimeric HA of A/Anhui/1/05 (H5N1) (Influenza A virus A/Anhui/1/2005(H5N1)); test: HA microarray, BCC supernatant
[2] = molecular target: recombinant soluble homotrimeric HA of A/California/4/09 (H1N1) (Influenza A virus A/California/04/2009(H1N1)); test: HA microarray, BCC supernatant
[3] = molecular target: recombinant soluble homotrimeric HA of A/Hong Kong/2108/03 (H9N2) (Influenza A virus A/HK/2108/2003(H9N2)); test: HA microarray, BCC supernatant
[4] = molecular target: recombinant soluble homotrimeric HA of A/Indonesia/5/05 (H5N1) (Influenza A virus A/Indonesia/5/2005(H5N1)); test: HA microarray, BCC supernatant
[5] = molecular target: recombinant soluble homotrimeric HA of A/Japan/305/57 (H2N2) (Influenza A virus A/Japan/305/1957(H2N2)); test: HA microarray, BCC supernatant
[6] = molecular target: recombinant soluble homotrimeric HA of A/Netherlands/219/03 (H7N7) (Influenza A virus A/Netherlands/219/03(H7N7)); test: HA microarray, BCC supernatant
[7] = molecular target: recombinant soluble homotrimeric HA of A/Solomon Islands/3/06 (H1N1) (Influenza A virus A/Solomon Islands/3/2006(H1N1)); test: HA microarray, BCC supernatant
[8] = molecular target: recombinant soluble homotrimeric HA of A/Vietnam/1203/04 (H5N1) (Influenza A virus A/VietNam/1203/2004(H5N1)); test: HA microarray, BCC supernatant
[9] = molecular target: recombinant soluble homotrimeric HA of A/Wisconsin/67/05 (H3N2) (Influenza A virus A/Wisconsin/67/2005(H3N2)); test: HA microarray, BCC supernatant
[10] = molecular target: recombinant soluble homotrimeric HA of A/chicken/Vietnam/NCVD-016/08 (H5N1) (Influenza A virus A/chicken/Vietnam/NCVD-016/2008(H5N1)); test: HA microarray, BCC supernatant
[11] = molecular target: recombinant soluble homotrimeric HA of A/duck/Yangzhou/02/05 (H8N4) (Influenza A virus A/duck/Yangzhou/02/2005(H8N4)); test: HA microarray, BCC supernatant
[12] = molecular target: recombinant soluble homotrimeric HA of A/northern shoveler/California/HKWF115/07 (H6) (Influenza A virus A/northern shoveler/California/HKWF115/2007(H6N1)); test: HA microarray, BCC supernatant
[13] = molecular target: recombinant soluble homotrimeric HA of A/swine/Ontario/01911-2/99 (H4N6) (Influenza A virus A/Swine/Ontario/01911-2/99 (H4N6)); test: HA microarray, BCC supernatant
[14] = molecular target: recombinant homotrimeric HA A/Anhui/1/05 H5N1 (Influenza A virus A/Anhui/1/2005(H5N1)); test: protein microarray, purified IgG, trimeric HA
[15] = molecular target: recombinant homotrimeric HA A/California/4/09 H1N1 (Influenza A virus A/California/04/2009(H1N1)); test: protein microarray, purified IgG, trimeric HA
[16] = molecular target: recombinant homotrimeric HA A/Egypt/3300-NAMRU3/08 H5N1 (Influenza A virus A/Egypt/3300-NAMRU3/2008(H5N1)); test: protein microarray, purified IgG, trimeric HA
[17] = molecular target: recombinant homotrimeric HA A/Hong Kong/1073/99 H9N2 (Influenza A virus A/Hong Kong/1073/99 (H9N2)); test: protein microarray, purified IgG, trimeric HA
[18] = molecular target: recombinant homotrimeric HA A/Hong Kong/156/97 H5N1 (Influenza A virus A/Hong Kong/156/97 (H5N1)); test: protein microarray, purified IgG, trimeric HA
[19] = molecular target: recombinant homotrimeric HA A/Indonesia/5/05 H5N1 (Influenza A virus A/Indonesia/5/2005(H5N1)); test: protein microarray, purified IgG, trimeric HA
[20] = molecular target: recombinant homotrimeric HA A/Japan/305/57 H2N2 (Influenza A virus A/Japan/305/1957(H2N2)); test: protein microarray, purified IgG, trimeric HA
[21] = molecular target: recombinant homotrimeric HA A/Netherlands/219/03 H7N7 (Influenza A virus A/Netherlands/219/03(H7N7)); test: protein microarray, purified IgG, trimeric HA
[22] = molecular target: recombinant homotrimeric HA A/Solomon Islands/3/06 H1N1 (Influenza A virus A/Solomon Islands/3/2006(H1N1)); test: protein microarray, purified IgG, trimeric HA
[23] = molecular target: recombinant homotrimeric HA A/South Carolina/1/18 H1N1 (Influenza A virus A/South Carolina/1/18 (H1N1)); test: protein microarray, purified IgG, trimeric HA
[24] = molecular target: recombinant homotrimeric HA A/Vietnam/1203/04 H5N1 (Influenza A virus A/VietNam/1203/2004(H5N1)); test: protein microarray, purified IgG, trimeric HA
[25] = molecular target: recombinant homotrimeric HA A/Wisconsin/67/05 H3N2 (Influenza A virus A/Wisconsin/67/2005(H3N2)); test: protein microarray, purified IgG, trimeric HA
[26] = molecular target: recombinant homotrimeric HA A/chicken/Vietnam/NCVD-016/08 H5N1 (Influenza A virus A/chicken/Vietnam/NCVD-016/2008(H5N1)); test: protein microarray, purified IgG, trimeric HA
[27] = molecular target: recombinant homotrimeric HA A/northern shoveler/California/HKWF115/07 H6N4 (Influenza A virus A/northern shoveler/California/HKWF115/2007(H6N1)); test: protein microarray, purified IgG, trimeric HA
[28] = molecular target: recombinant homotrimeric HA A/Hong Kong/2108/03 H9N2 (Influenza A virus A/HK/2108/2003(H9N2)); test: protein microarray, purified IgG, trimeric HA

Binder	Trimeric HA Binding: RLU [1] [RLU]	Trimeric HA Binding: RLU [2] [RLU]	Trimeric HA Binding: RLU [3] [RLU]	Trimeric HA Binding: RLU [5] [RLU]	Trimeric HA Binding: RLU [6] [RLU]	Trimeric HA Binding: RLU [7] [RLU]	Trimeric HA Binding: RLU [8] [RLU]	Trimeric HA Binding: RLU [9] [RLU]	Trimeric HA Binding: RLU [12] [RLU]	Trimeric HA Binding: RLU [13] [RLU]	Trimeric HA Binding: RLU [16] [RLU]	Trimeric HA Binding: RLU [17] [RLU]	Trimeric HA Binding: RLU [18] [RLU]	Trimeric HA Binding: RLU [20] [RLU]	Trimeric HA Binding: RLU [21] [RLU]	Trimeric HA Binding: RLU [22] [RLU]	Trimeric HA Binding: RLU [23] [RLU]	Trimeric HA Binding: RLU [24] [RLU]	Trimeric HA Binding: RLU [25] [RLU]	Trimeric HA Binding: RLU [27] [RLU]	other results
TCN-535 (5246_P19) (antibody, V domains shown) VH: QVQLVQSGSEVKKPGTSVKVSCTASGSVFTNYGISWVRQAPGQGLEWMGGIIPLFGAAKYAQKFQGRVTITADESTKTVYMELSRLTSKDTAIYFCAKAPRVYEYYFDQWGQGTPVTVSS VL: EIVLTQSPGTLSLSPGERATLSCRASQSVSSSQLAWYQQKPGQAPRLIIYGASTRATGIPDRFSGSGSGTDFTLTIGRLEPEDFAVFFCQQYSTSPPTFGQGTKVDFK	6880	48600	861	26100	4760	39400	4740	34300	48200	5950	18100	3470	13200	13000	339	11300	5660	20800	148	5880	Trimeric HA Binding: RLU [4]: 45600 RLU; Trimeric HA Binding: RLU [10]: 50000 RLU; Trimeric HA Binding: RLU [11]: 36600 RLU; Trimeric HA Binding: RLU [14]: 6700 RLU; Trimeric HA Binding: RLU [15]: 17200 RLU; Trimeric HA Binding: RLU [19]: 17900 RLU; Trimeric HA Binding: RLU [26]: 2630 RLU
TCN-543 (5081_G23) (antibody, V domains shown) VH: QVHLVQSGAEVRKPGDSVKVSCKTSGYTFSTYPVAWVRQVPGQGLEWMGWISTYNGNTNFAQNFQGRVTLTTDTTTNTAYMEVRSLKFDDTAVYYCARVEGSYRDFWNNQNRFDPWGQGTLVTVSS VL: SYVLTQPPSVSVAPGQTARISCGGSNIGGKSVHWYQQKPGQAPVLVVYDDSGRPSGIPERFSGSNSGDTATLTISRVEAGDEADYFCQVWDNFGGVFGTGTKVTVL	–	–	131	197	661	511	488	1360	2130	428	580	9160	112	14000	162	18300	259	640	302	101	Trimeric HA Binding: RLU [14]: 601 RLU; Trimeric HA Binding: RLU [28]: 135 RLU; Trimeric HA Binding: RLU [19]: 91 RLU
TCN-530 (5248_H10a) (antibody, V domains shown) VH: QVQLVQSGAEVRKPGSSVKVSCKASGGPFMSYAIGWVRQAPGQGLEWMGGINPVFGRPHYAQKFQGRVTIATDDSTKTSYMELSSLTSEDTGMYYCASRYSRSSPGTFESWGQGTLVTVSS VL: EIVMTQFPATLSVSPGERVTLSCRASQSVSNNLAWYQQKPGQPPRLLIYDASTRATGVPAKFSGTGSGTEFTLSISSLQSEDFAVYYCQQYHNWPPSYSFGLGTKLEIK	11900	46600	486	47000	2900	32800	7150	36800	45300	2740	12300	874	14000	9040	402	8570	7360	19100	132	9010	Trimeric HA Binding: RLU [4]: 39800 RLU; Trimeric HA Binding: RLU [10]: 48300 RLU; Trimeric HA Binding: RLU [11]: 41700 RLU; Trimeric HA Binding: RLU [15]: 14200 RLU; Trimeric HA Binding: RLU [28]: 169 RLU; Trimeric HA Binding: RLU [19]: 10900 RLU; Trimeric HA Binding: RLU [26]: 2050 RLU
TCN-550 (5096_F06) (antibody, V domains shown) VH: QVQLQESGPGLVKPSETLSLTCTVSGASINSHYWSWIRQPPGKGLEWIGYVYYSGSTTYNPSLKSRVTLSVDTSKNQFSLNLSSVTAADTAFYYCARHPYDVLTGSGDWFDPWGQGTLVTVSS VL: SYVLTQAPSVSVAPGQTARITCGGNAIGSKKVHWYQHKAGQAPVLVVYDDTDRPSGIPERFSGSNSWSTATLTINRVEAGDEADYYCQVWDFTIDHVVFGGGTKLTVL	1210	454	2280	201	939	204	277	26300	964	195	3530	413	304	499	223	752	104	829	21300	106	Trimeric HA Binding: RLU [4]: 9100 RLU; Trimeric HA Binding: RLU [10]: 361 RLU; Trimeric HA Binding: RLU [11]: 407 RLU; Trimeric HA Binding: RLU [14]: 4780 RLU; Trimeric HA Binding: RLU [15]: 238 RLU; Trimeric HA Binding: RLU [28]: 150 RLU; Trimeric HA Binding: RLU [26]: 295 RLU
